In data set [1] the target is T1, ABCG2 (Homo sapiens, UniProt Q9UNQ0).
T1 construct: expressed in transfected cells
T1 sequence (Q9UNQ0 1-655): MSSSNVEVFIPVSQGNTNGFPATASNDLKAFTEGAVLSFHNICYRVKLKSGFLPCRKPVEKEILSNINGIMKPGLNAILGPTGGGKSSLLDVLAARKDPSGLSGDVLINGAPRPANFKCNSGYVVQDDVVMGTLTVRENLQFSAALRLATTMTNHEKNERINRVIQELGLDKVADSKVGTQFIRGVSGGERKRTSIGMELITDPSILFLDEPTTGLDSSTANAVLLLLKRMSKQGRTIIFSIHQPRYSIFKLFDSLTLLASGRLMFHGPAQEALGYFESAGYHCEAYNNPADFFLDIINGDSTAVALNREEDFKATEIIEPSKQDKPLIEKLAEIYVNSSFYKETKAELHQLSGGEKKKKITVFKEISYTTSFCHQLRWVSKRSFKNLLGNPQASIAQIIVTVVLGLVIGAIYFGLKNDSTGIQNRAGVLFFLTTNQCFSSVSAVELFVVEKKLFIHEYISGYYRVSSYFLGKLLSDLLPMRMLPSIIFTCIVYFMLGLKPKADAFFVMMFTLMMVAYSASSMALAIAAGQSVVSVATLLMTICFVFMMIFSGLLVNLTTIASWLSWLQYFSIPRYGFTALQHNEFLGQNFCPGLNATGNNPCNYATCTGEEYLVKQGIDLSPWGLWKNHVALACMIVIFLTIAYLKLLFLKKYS
The format is cell-based. The protocol:
293T_ABCG2_OX cells were washed several times and aliquoted into 96-well plates as 50 μl aliquots/well at a cell density of 2×10e6 cells per ml in phenol red-free DMEM. Cells were mixed with 50 μl antibodies or the small molecule inhibitors of ABCG2:-fumitremorgin C (FTC), or its tetracyclic analogue K0143, with a final concentration of 1 μM. Cells were then incubated in the presence of 2.5 μM Mitoxantrone 1 h at 37° C. The cells were subsequently washed twice and finally resuspended in […] PBS. Mitoxantrone fluorescence was measured using excitation at 635 nm and emission at 647 nm. Protocols was measuring efflux blockade are found in Szabo E, et al., PLoS One. 2018 Jan. 17; 13(1):e0190629; Deeken J F, et al., Mol Pharmacol. 2009 November; 76(5):946-56).

Data set [2] deals with T1, ABCG2. In words: Flow cytometry binding to 293T cells overexpressing human ABCG2 (293T_ABCG2_OX). On the set-up: key to Binding by FACS: binding=“+”; non-significant binding=“−”. The conditions noted are these: for Binding by FACS / Kd: 293T_ABCG2_OX cells; for binding to 293T cells overexpressing human ABCG2: in words, FIGS. 7-11, 21; for Kd: read-out: Affinity for human ABCG2. The protocol: (§1) Cell Binding Assays. Antibody binding to cells was evaluated by flow cytometry. 293T cells stably transfected to express human or cynomolgus ABCG2 (293T_ABCG2_OX) were washed once in flow cytometry buffer (PBS+2% FBS+0.02% sodium azide), resuspended at 2×10^6 cells/mL in flow cytometry buffer, and dispensed into 96-well microtiter plates at 0.1 mL/well. Recombinant antibodies were added to cells at 5 ug/mL for initial binding confirmation, or serially diluted from 100 ug/mL in flow cytometry buffer. After incubating cells on ice for 30 min, cells were washed twice with flow cytometry buffer. Bound antibody was detected with PE-labeled F(ab′)2 fragment goat anti-human IgG (Jackson ImmunoResearch) and evaluated on an Attune NxT flow cytometer. EC50 is calculated to be the concentration of antibody that gives half maximal response.

In another data set the test system is cynomolgus ABCG2. In words: Flow cytometry binding to 293T cells overexpressing cynomolgus ABCG2. On the set-up: key to Cynomolgus ABCG2 binding: binding=“+”; non-significant binding=“−”. The conditions noted are these: for binding to 293T cells overexpressing cynomolgus ABCG2: in words, FIGS. 7-11, 21. The protocol:
as §1

Another data set deals with 293T_ABCG2_OX cells. The format is cell-based, human. The following applies: for Killing: cell killing by topotecan on 293T_ABCG2_OX cells, viability relative to IgG control. The procedure:
Cytotoxicity Assays. The effect of antibodies on topotecan cytotoxicity was evaluated on 293T_ABCG2_OX cells, 293T cells stably transfected to express ABCG2. Cells were plated in 0.05 mL of Assay Media (DMEM+10% FBS) at 5000 cells/well in white, flat bottom 96-well tissue culture plates. Topotecan was prepared at 2× final assay concentration by serial dilution from 200 uM in assay media containing test antibodies or control antibodies at 100 ug/mL (2× final concentration), or Fumitremorgin C, a small molecule ABCG2 inhibitor at 20 uM (2× final concentration). An equivalent volume (0.05 mL) of the topotecan/antibody mixture was added to the 293T_ABCG2_OX cells in 96-well plates. The plates were then incubated at 37° C., in 5% CO2. After 72-96 hr plates were equilibrated to room temperature and cell viability assessed using Promega® CellTiter-Glo® Luminescent Cell Viability Assay according to the manufacturer's recommended protocol. Luminescence was measured on a Molecular Devices® FlexStation® 3 Multi-Mode Microplate Reader and data analyzed using GraphPad Prism 8.0 software. Half maximal inhibitory concentration (1050) is the concentration of drug (topotecan or other chemotherapy cytotoxic agent) where the response (cell growth) is reduced by 50%.

Experimental findings from patent publication US20230212305A1, “ANTI-ABCG2 ANTIBODIES AND USES THEREOF” (Kenjockety Biotechnology, Inc., priority 2020, published 2023) are described below.

Chain of cynomolgus ABCG2 (as listed by the source): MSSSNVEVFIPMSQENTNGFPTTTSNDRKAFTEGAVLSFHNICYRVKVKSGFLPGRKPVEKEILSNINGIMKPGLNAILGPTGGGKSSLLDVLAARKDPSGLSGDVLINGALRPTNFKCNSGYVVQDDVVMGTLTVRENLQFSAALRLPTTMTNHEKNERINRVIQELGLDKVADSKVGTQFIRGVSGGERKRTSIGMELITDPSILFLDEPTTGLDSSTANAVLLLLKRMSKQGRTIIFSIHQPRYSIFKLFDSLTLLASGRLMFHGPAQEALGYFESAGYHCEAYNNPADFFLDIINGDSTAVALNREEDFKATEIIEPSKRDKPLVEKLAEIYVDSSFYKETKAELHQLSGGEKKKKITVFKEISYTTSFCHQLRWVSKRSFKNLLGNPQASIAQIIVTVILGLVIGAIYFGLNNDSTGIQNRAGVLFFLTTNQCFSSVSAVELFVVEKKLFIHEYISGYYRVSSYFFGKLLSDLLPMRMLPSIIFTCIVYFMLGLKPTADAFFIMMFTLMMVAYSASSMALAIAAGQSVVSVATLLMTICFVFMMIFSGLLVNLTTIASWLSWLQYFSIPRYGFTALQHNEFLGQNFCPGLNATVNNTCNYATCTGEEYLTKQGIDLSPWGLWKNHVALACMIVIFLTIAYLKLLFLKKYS

B1: G2.420 rat: anti-ABCG2 antibody raised in rat (antibody, V domains shown)
VH: SVQLMESGPGLVQPSQTLSLTCTVSGFSLNSYNVNWVRQPPGKGLEWIAAISSGGSTYYNSVLKSRLSITRDTSKSQVFLKMNSLQTEDTAMYFCARSGYYSSYMNWGQGVMVTVSS
VL: DVVMTQTPPTLSATIGQSVSISCRSSQSLLHSTGNTYLNWLLQRPGQPPQLLIYLVSRLEYGVPNRFSGSGSGTDFTLKISGVEAEDLGVYYCAQSTHALNTFGAGTKLELK
Take B1: the “Block Efflux” value with ABCG2 [1] is on record as “+”. Moreover, the “Binding by FACS” value with ABCG2 [2] is “+”. Moreover, in the data set with cynomolgus ABCG2, the “Cynomolgus ABCG2 binding” value is “+”. Besides, the “effect on topotecan cytotoxicity on 293T_ABCG2_OX cells” value in the data set on 293T_ABCG2_OX cells is given as “significantly increased the cytotoxic activity of topotecan”.

B2: G2.643: Anti-G2 antibody raised in rats (antibody, V domains shown)
VH: VNLVESGPELVKPGTSVKISCKASGYRFTSYYVHWVKQRPGQGLEWIGWIFPGSDNTKYNEKFKGKATLTADTSSSTAYMQLSSLTSEDSAVYFCASIYYGYDGTLYFDYWGQGTSVTVSS
VL: DIVMTQSHTFMSTSVGDRVSVTCKASQNVGNNVAWYQQKPGQSPNALIYSASYRYSGVPDRFTGSGSGTDFTLTISNVQSEDLAEYFCQQYDRYPLTFGGGTKLEIK
With B2, the “binding to 293T cells overexpressing human ABCG2” value with ABCG2 [2] is reported as “strong binding”; in the data set with ABCG2 [2] (listed as G.643), “did not show significant binding”. Further, the figures for the “binding to 293T cells overexpressing cynomolgus ABCG2” value with cynomolgus ABCG2 and in the data set on cynomolgus ABCG2 (listed as G.643) were “strong binding” and “did not show significant binding”, respectively. Further, the “effect on topotecan cytotoxicity on 293T_ABCG2_OX cells” value in the data set on 293T_ABCG2_OX cells is “significantly increased the cytotoxic activity of topotecan”.

B3: G2.173 mouse: anti-ABCG2 antibody raised in mouse, listed in Table 2 (antibody, V domains shown)
VH: QVQLQQSGADLVRPGASVKLSCTASGFNIKDDYVHWVKQRPEQGLEWIGRIDPANGNTRYAPKFRGKATMTADTSSNTAYLQLSSLTSADTAVYYCSPPLWVGGFAYWGQGTLVTVSS
VL: DVVMTQTPLSLPVSLGDQASISCRSSQSLVHSDVNTYLHWYLQRPGQSPKLLIYKVSNRFSGVPDRFSGSGSGTDFTLKISRVESEDLGIYFCSQTTHVPYTFGGGTKLEIK
As to B3, the “Block Efflux” value in the data set with ABCG2 [1] is given as “−”. Also, the “Binding by FACS” value with ABCG2 [2] is on record as “+”. The “Cynomolgus ABCG2 binding” value with cynomolgus ABCG2 was “−”. In addition, the Killing result with 293T_ABCG2_OX cells is “− (≥75% of IgG control)”.

B4: G2.173 Humanized 1: humanized version of anti-ABCG2 antibody G2.173 (antibody, V domains shown)
VH: EVQLVQSGAEVKKPGASVKVSCKASGFNIKDDYVHWVRQAPGQGLEWIGRIDPANGNTRYAPKFRGRATMTADTSISTAYMELSRLRSDDTAVYYCSPPLWVGGFAYWGQGTLVTVSS
VL: DVVMTQSPLSLPVTLGQPASISCRSSQSLVHSDVNTYLHWYQQRPGQSPRLLIYKVSNRFSGVPDRFSGSGSGTDFTLKISRVEAEDVGVYFCSQTTHVPYTFGGGTKLEIK
For the molecule B4, in the data set with ABCG2 [1], the “Block Efflux” value is “−”. Besides, the “Binding by FACS” value in the data set with ABCG2 [2] is on record as “+”. Moreover, the “Cynomolgus ABCG2 binding” value in the data set with cynomolgus ABCG2 is on record as “−”. Further, the Killing entry in the data set with 293T_ABCG2_OX cells is on record as “− (≥75% of IgG control)”.

B5: G2.173 Humanized 3: humanized version of anti-ABCG2 antibody G2.173 (antibody, V domains shown)
VH: EVQLVQSGAEVKKPGASVKVSCKASGFNIKDDYVHWVRQAPGQGLEWIGRIDPASGNTRYAPKFRGRATMTADTSISTAYMELSRLRSDDTAVYYCSPPLWVGGFAYWGQGTLVTVSS
VL: DVVMTQSPLSLPVTLGQPASISCRSSQSLVHSDVNTYLHWYQQRPGQSPRLLIYKVSNRFSGVPDRFSGSGSGTDFTLKISRVEAEDVGVYFCSQTTHVPYTFGGGTKLEIK
For B5, in the data set with ABCG2 [1], the “Block Efflux” value was “−”. Moreover, the “Binding by FACS” value with ABCG2 [2] is recorded as “+”. In addition, the “Cynomolgus ABCG2 binding” value with cynomolgus ABCG2 is “−”. For the same molecule, the Killing result with 293T_ABCG2_OX cells is given as “− (≥75% of IgG control)”.

B6: G2.173 Humanized 2: humanized version of anti-ABCG2 antibody G2.173 (antibody, V domains shown)
VH: EVQLVQSGAEVKKPGASVKVSCKASGFNIKDDYVHWVRQAPGQGLEWIGRIDPAQGNTRYAPKFRGRATMTADTSISTAYMELSRLRSDDTAVYYCSPPLWVGGFAYWGQGTLVTVSS
VL: DVVMTQSPLSLPVTLGQPASISCRSSQSLVHSDVNTYLHWYQQRPGQSPRLLIYKVSNRFSGVPDRFSGSGSGTDFTLKISRVEAEDVGVYFCSQTTHVPYTFGGGTKLEIK
Turning to B6, the “Block Efflux” value with ABCG2 [1] is “−”. Further, in the data set with ABCG2 [2], the “Binding by FACS” value is given as “+”. In the data set on cynomolgus ABCG2, the “Cynomolgus ABCG2 binding” value is listed as “−”. Moreover, the Killing result in the data set on 293T_ABCG2_OX cells is on record as “− (≥75% of IgG control)”.

B7: G2.318 rat: anti-ABCG2 antibody raised in rat (antibody, V domains shown)
VH: EVKLLESGPGLVKPSQSLSLTCSVTGYTITSGYDWSWIRKFPGNKMEWMGYISYSGWTNYNPSLRSRISISRDTSKNQFFLQLNSVTTEDTATYYCARVRGYNPFAYWGQGTLVTVSS
VL: DIVMTQSPSLLSASVGDRVTLSCKAGQNINNYLAWYQQKLGEAPKLLIYNANSLQTGIPSRFSGSGSGTDFTLTISSLQPEDVATYFCQQYNSWTTFGSGTKLEIK
Turning to B7, in the data set with ABCG2 [1], the “Block Efflux” value is “+” and the efflux inhibition activity result is “strong efflux inhibition activity”. In the data set with ABCG2 [2], the “Binding by FACS” value is “+” and the Kd was 41 nM. The “Cynomolgus ABCG2 binding” value in the data set with cynomolgus ABCG2 was “+”. Moreover, in the data set on 293T_ABCG2_OX cells, the Killing result is “+ (viability ≥30% and <50% of IgG control)”.

B8: G2.320 rat: anti-ABCG2 antibody raised in rat (antibody, V domains shown)
VH: EVQLEESGPGLVKPSQSLSLTCSVTGYTITSGYDWTWIRKFPGNKMEWMGYISYSGFTNYNPSLRSRISITRDTSKNQFFLQLNSVTTEDTATYYCTRTRGYNPFAYWGQGASVSSAS
VL: DIVMTQSPSLLSASVGDRVTLSCKAGRNINNYLAWYQQKLGKAPKLLIYNTNSLQTGIPSRFSGSGSGTDFTLTISSLQPEDVATYFCQQYNSWTTFGSGTKLEIK
Take B8: the “Block Efflux” value in the data set with ABCG2 [1] is “+”. In addition, in the data set with ABCG2 [2], the “Binding by FACS” value is on record as “+” and the Kd was 58 nM. In addition, the “Cynomolgus ABCG2 binding” value with cynomolgus ABCG2 was “+”. Also, in the data set with 293T_ABCG2_OX cells, the Killing result is “+ (viability ≥30% and <50% of IgG control)”.
